Measured values: PMC4177672, “The Vip1 Inositol Polyphosphate Kinase Family Regulates Polarized Growth and Modulates the Microtubule Cytoskeleton in Fungi” (PLoS Genetics, 2014)

Assays:
GST-Vip1^1-535 = target: T1, GST-Vip1^1-535 (Saccharomyces cerevisiae, UniProt Q06685); assay: IP7 formation, PAGE with Toluidine Blue stain; format: biochemical; conditions: 1 µg protein; positive control enzyme
T1 construct: kinase domain residues 1-535, GST tag kept, E. coli Rosetta, purified

[1] = test system: O=P(O)(O)O[C@H]1[C@H](OP(=O)(O)O)[C@@H](OP(=O)(O)O)[C@H](OP(=O)(O)O)[C@@H](OP(=O)(O)O)[C@H]1OP(=O)(O)O; assay: purified protein; conditions: 0-300 µM IP6; ATP-dependent; 2 µg protein; 6 h

T1 sequence (Q06685 1-535): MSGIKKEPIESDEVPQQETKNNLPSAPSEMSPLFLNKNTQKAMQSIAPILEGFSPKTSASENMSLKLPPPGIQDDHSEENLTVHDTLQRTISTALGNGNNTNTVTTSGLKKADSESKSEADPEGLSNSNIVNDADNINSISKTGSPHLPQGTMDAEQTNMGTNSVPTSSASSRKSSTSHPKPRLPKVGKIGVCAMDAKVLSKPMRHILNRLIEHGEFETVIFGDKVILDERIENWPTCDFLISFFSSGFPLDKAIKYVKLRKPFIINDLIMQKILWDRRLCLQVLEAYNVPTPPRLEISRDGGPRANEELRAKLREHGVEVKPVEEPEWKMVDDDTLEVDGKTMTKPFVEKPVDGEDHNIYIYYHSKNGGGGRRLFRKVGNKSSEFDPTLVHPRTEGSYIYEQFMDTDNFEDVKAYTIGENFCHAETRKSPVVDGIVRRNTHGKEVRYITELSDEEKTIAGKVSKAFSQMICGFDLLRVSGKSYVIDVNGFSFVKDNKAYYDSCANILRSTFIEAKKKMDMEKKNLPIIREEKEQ

Compound	IP7 formation, PAGE with Toluidine Blue stain (GST-Vip1^1-535)	Km [1] [µM]
O=P(O)(O)O[C@H]1[C@H](OP(=O)(O)O)[C@@H](OP(=O)(O)O)[C@H](OP(=O)(O)O)[C@@H](OP(=O)(O)O)[C@H]1OP(=O)(O)O [IP6]	S. cerevisiae Vip1 for which enzymatic activity had been demonstrated was used as a positive control	
GST-Asp1 (full length) (Schizosaccharomyces pombe 972h-)		58.18
GST-Asp1 (full length) (Schizosaccharomyces pombe 972h-; H397A)		57.32
